The record followed here is patent publication US20170240629A1 (Hoffmann-La Roche, published 2017).

What is called koff is the first-order rate constant of dissociation. By kon is commonly meant a measure of how fast the partners come together. A word on the IC50: it is the concentration that gives 50% inhibition. In general, EC50 refers to the midpoint of the concentration-response curve.

Where two headings read alike, the source gives them in different places.

Test [1] addresses T1, human IL-1beta (human, UniProt P01584 117-269). Kind of test: cell-based or functional assay.
Test [2] deals with T1, human IL-1beta. Kind of test: cell-based or functional assay. This is another data set of the same source.
In test [3] the target is T1, human IL-1beta. The experiment in a line: cell-based or functional assay. This is another data set of the same source.
For test [4], the target named is T1, human IL-1beta. The experiment in a line: cell-based or functional assay. The source holds these as a separate data set.
Test [5] addresses T1, human IL-1beta. The experiment in a line: cell-based or functional assay. The source holds these as a separate data set.
The target of test [6] is T1, human IL-1beta. Kind of test: SPR (BIAcore); antibody captured by anti-Fc, IL-1beta injected.
Procedure: (§1) All experiments were performed at 25° C. using HBS-P (10 mM His, 140 mM NaCl, 0.05% Tween 20 pH 7.4) as running and dilution buffer. Anti-human or anti-mouse Fc antibodies were immobilized on a Series S CM5 Sensor Chip (GE Healthcare) using standard amine coupling chemistry. […] The dissociation phase was monitored for 600 sec by washing with running buffer. […] The surface was regenerated by injecting 3 M MgCl2 (for anti-human Fc antibody) or 10 mM Glycine pH 1.5 (for anti-mouse Fc antibody) for 60 sec at a flow rate of 5 μl/min. Bulk refractive index differences were corrected by subtracting the response obtained from a mock surface. Blank injections were subtracted (double referencing). The derived curves were fitted to a 1:1 Langmuir binding model using the BIAevaluation software.
Test [7] concerns the target cynomolgus IL-1beta (cynomolgus, UniProt P79182 117-268). The test is described as above.
Procedure: as §1
In test [8] the target is T1, human IL-1beta. Kind of test: SPR inhibition; 10 nM human IL-1beta pre-incubated with antibody, injected over immobilised human IL-1RI (competitor).
Procedure: All experiments were performed at 25° C. using HBS-P (10 mM His, 140 mM NaCl, 0.05% Tween 20 pH 7.4) as running and dilution buffer. Human IL-1RI was immobilized on a Series S CM5 Sensor Chip (GE Healthcare) using standard amine coupling chemistry. […] The surface was regenerated by injecting 10 mM NaOH for 60 sec at a flow rate of 5 μl/min. Bulk refractive index differences were corrected by subtracting the response obtained from a mock surface.
The target in test [9] is T2, human PDGF-BB (human, UniProt P01127 82-190).
T2 construct: also called huPDGF-BB
T2 sequence (P01127 82-190 limits assumed): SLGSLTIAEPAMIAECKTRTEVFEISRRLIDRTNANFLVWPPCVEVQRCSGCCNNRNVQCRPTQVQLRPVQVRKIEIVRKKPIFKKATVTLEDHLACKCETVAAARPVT
The experiment in a line: SPR; IgG. Background: Surface plasmon resonance follows binding to a sensor surface in real time, without labels.

In test [10] the target is T2, human PDGF-BB. The experiment in a line: ELISA, antigen coated. In general terms: ELISA stands for enzyme-linked immunosorbent assay.
Procedure: (§2) The binding analysis was carried out using an enzyme-linked immunosorbent assay (ELISA)-based technology. […] The EC₅₀ was calculated with a four parameter logistic model using GraphPad Prism 6.0 software.
The target of test [11] is T3, murine PDGF-BB (murine, UniProt P31240 82-190).
T3 construct: also called muPDGF-BB
T3 sequence (P31240 82-190 limits assumed): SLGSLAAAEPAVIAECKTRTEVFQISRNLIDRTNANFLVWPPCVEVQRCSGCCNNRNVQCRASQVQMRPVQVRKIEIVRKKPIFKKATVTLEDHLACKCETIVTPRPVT
The experiment in a line: ELISA, antigen coated.
Procedure: as §2

For test [12], the target named is rat PDGF-BB (rat, UniProt Q05028 74-182). The experiment in a line: ELISA, antigen coated.
Chain of rat PDGF-BB (Q05028 74-182 limits assumed): as the sequence (P31240 82-190 limits assumed) above, with I83V, I102V counted along it
Procedure: as §2
Test [13] concerns the target T4, cynomolgus PDGF-BB (cynomolgus, UniProt A0A2K5UX81 82-190).
T4 construct: also called cynPDGF-BB
The experiment in a line: ELISA, antigen coated.
Procedure: as §2

Test [14] addresses T2, human PDGF-BB. Kind of test: cell-based or functional assay.
The target in test [15] is T2, human PDGF-BB. Kind of test: cell-based or functional assay. The source holds these as a separate data set.
Test [16] has as its target T2, human PDGF-BB. The experiment in a line: SPR; apparent KD** of the IgG.
The target in test [17] is T2, human PDGF-BB. Kind of test: SPR (BIAcore B4000); PDGF-BB coupled on C1 chip, antibody injected; apparent value.
Procedure: (§3) The binding analysis was carried out using a surface plasmon resonance spectroscopy-based technology applying a BIAcore B4000 system (GE Healthcare). […] Utilizing a read out time of 180 sec. association phase and 600 sec. dissociation phase the apparent kₐ and apparent kd were calculated. The apparent KD (avidity) was calculated using the BlAcore T200 v2.0 fitting software.
Test [18] addresses T4, cynomolgus PDGF-BB. Described as above.
Procedure: as §3
Test [19] addresses T2, human PDGF-BB. Kind of test: SPR (BIAcore T200) kinetic screening; PDGF-BB coupled on C1 chip, antibody injected.
The target in test [20] is T2, human PDGF-BB. Kind of test: SPR (BIAcore B4000); PDGF-BB coupled on C1 chip, antibody injected; apparent KD (avidity).
Procedure: as §3
In test [21] the target is T4, cynomolgus PDGF-BB. The test is described as above.
Procedure: as §3
Test [22] has as its target T2, human PDGF-BB. The experiment in a line: competition ELISA; biotinylated human PDGF-BB with antibody on coated Fc-tagged PDGF-BB receptor (competitor).
Procedure: The IC₅₀ was calculated with a four parameter logistic model using GraphPad Prism 6.0 software.
Test [23] has as its target T2, human PDGF-BB. The experiment in a line: SPR; Fab.
Test [24] concerns the target T2, human PDGF-BB. Kind of test: SPR; apparent KD* of the Fab.
The target in test [25] is T2, human PDGF-BB. Kind of test: SPR (BIAcore T200); PDGF-BB coupled on CM3 chip, Fab injected.
For test [26], the target named is T2, human PDGF-BB. Kind of test: SPR (BIAcore T200); PDGF-BB coupled on CM3 chip, antibody injected (Example 52). More on the design: t½: unit not given here.
In test [27] the target is T5, ANG2 (UniProt O15123 68-496, limits assumed).
T5 sequence (looked up): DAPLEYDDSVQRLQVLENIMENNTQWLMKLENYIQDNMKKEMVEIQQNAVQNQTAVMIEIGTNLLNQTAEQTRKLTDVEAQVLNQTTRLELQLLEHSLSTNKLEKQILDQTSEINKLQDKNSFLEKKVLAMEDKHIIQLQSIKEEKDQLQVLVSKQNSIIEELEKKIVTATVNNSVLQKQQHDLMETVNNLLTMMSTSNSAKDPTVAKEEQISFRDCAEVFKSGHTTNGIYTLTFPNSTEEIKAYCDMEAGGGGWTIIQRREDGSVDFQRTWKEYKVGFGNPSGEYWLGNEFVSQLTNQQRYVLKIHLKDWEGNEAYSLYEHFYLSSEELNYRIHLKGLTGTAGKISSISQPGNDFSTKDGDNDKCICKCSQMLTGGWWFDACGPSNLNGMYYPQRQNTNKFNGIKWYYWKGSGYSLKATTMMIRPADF
Kind of test: cell-based or functional assay.

Test [28] concerns the target T1, human IL-1beta. Kind of test: cell-based or functional assay. The source holds these as a separate data set.
The target of test [29] is T6, human ANG2-RBD-mouse Fc-region fusion (human, UniProt O15123 275-496, limits assumed).
T6 construct: domain: RBD; also called human ANG2-RBD-murine Fc-region fusion; not shown: mouse Fc-region
T6 sequence (looked up): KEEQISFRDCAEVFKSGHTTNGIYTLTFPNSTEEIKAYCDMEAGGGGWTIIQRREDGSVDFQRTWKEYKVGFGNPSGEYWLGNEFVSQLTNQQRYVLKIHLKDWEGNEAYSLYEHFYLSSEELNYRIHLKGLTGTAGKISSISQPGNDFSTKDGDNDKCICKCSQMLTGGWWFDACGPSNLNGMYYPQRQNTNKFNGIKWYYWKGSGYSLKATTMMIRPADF
Kind of test: SPR (BIAcore T200); ANG2-RBD-mouse Fc captured, antibody injected (Example 52).

The target in test [30] is T1, human IL-1beta. Kind of test: SPR (BIAcore T200); antibody captured by anti-human Fc, human IL-1beta injected (Example 52). More on the design: t 1/2: unit not given here.

T4 sequence (A0A2K5UX81 entry or part of it): as the sequence (P01127 82-190 limits assumed) above, with I7V counted along it

B1: Canakinumab (antibody, V domains shown)
VH: QVQLVESGGGVVQPGRSLRLSCAASGFTFSVYGMNWVRQAPGKGLEWVAIIWYDGDNQYYADSVKGRFTISRDNSKNTLYLQMNGLRAEDTAVYYCARDLRTGPFDYWGQGTLVTVSS
VL: EIVLTQSPDFQSVTPKEKVTITCRASQSIGSSLHWYQQKPDQSPKLLIKYASQSFSGVPSRFSGSGSGTDFTLTINSLEAEDAAAYYCHQSSSLPFTFGPGTKVDIKR
For B1, the “IC50, inhibition of ICAM-1 expression upon IL-1beta stimulation of A549 cells” value in test [1] is 0.31 nM. Further, the “IC50, inhibition of ICAM-1 expression upon IL-1beta stimulation of HUVEC cells” value in [2] is 9.02 nM. Moreover, the “EC50, reduction of IL-6 expression upon IL-1beta stimulation of A549 cells” value (shortened to “EC50, reduction”) in test [3] amounted to 0.12 nM. For the same molecule, the “IC50, inhibition of proliferation of D10 cells” value in test [4] came out at 1.99 nM. Further, the “EC50, reduction” value in test [5] was found to be 0.0864 µg/mL. Moreover, in test [6], the Kd was 0.02 nM, the off-rate constant (koff) came out at 5.2e-05 s⁻¹ and the kon was 2.78e+06 M⁻¹ s⁻¹. In test [7], the Kd stood at 13.2 nM, the koff was 0.0284 s⁻¹ and the on-rate constant (kon) came out at 2.15e+06 M⁻¹ s⁻¹. In addition, in test [8], the half-inhibitory concentration (IC50) is 1.6 nM.

B2: antibody 0085 (antibody, V domains shown)
VH: EVQLVESGGGLVQPGGSLRLSCAASGFTFSSYWMSWVRQAPEKGLEWVSTISDGGGLTYYADSVKGRFTISRDNAKNSLYLQMNSLRAEDTAVYYCAESGGYTDWLFGYWGQGTLVTVSS
VL: not shown
notes: Human antibody from a human Ig locus transgenic rabbit
The molecule B2 came in with a T½ in [9] of 146 min. In addition, the half-maximal effective concentration (EC50) in [10] amounted to 0.00755 µg/mL; in [11], 0.025 µg/mL; in test [12] it was 0.016 µg/mL; in test [13], 0.0153 µg/mL. For the same molecule, in test [14], the “IC50 Proliferation 3T3” value worked out at 0.0318 µg/mL. In test [15], the “Balb-C3T3 Proliferation, IC50” value came to 0.06 nM. Moreover, in test [15], the “Pericytes Migration, IC50” value was found to be 0.15 nM. In addition, the “Pericytes Proliferation, IC50” value in test [15] was 0.11 nM. The Kd was determined as 0.023 nM in test [16], 0.0476 nM in test [20] and 0.0478 nM in test [21]. Also, the figures for the koff in test [17], in [18] and in [19] were 4.4e-05 s⁻¹, 4.52e-05 s⁻¹ and 0.000102 s⁻¹, respectively. The kon turned out to be 930000 M⁻¹ s⁻¹ in [17] and 940000 M⁻¹ s⁻¹ in test [18]. The molecule further displayed a t½ in test [19] of 114 min. This molecule also returned a concentration for half-maximal inhibition (IC50) in [22] of 0.0178 µg/mL.

B3: antibody 0106 (Fab, V domains shown)
VH: EVQLVESGGGLVQPGGSLRLSCAASGFTFSSYWMSWVRQAPEKGLEWVSTISDGGGLTYYADSVKGRFTISRDNAKNSLYLQMNSLRAEDTAVYYCAESGGYTDWLFGYWGQGTLVTVSS
VL: not shown
Molecule B3 returned a T½ in [23] of 30.9 min. Moreover, the Kd in test [24] amounted to 2 nM. In [25], the Kd was 2 nM, the koff stood at 0.000374 s⁻¹, the on-rate (kon) was determined as 202000 M⁻¹ s⁻¹ and the t½ amounted to 30.9 min. In [26], this molecule came in with a Kd of 1 nM, a koff of 0.000291 s⁻¹, an association rate constant (kon) of 294000 M⁻¹ s⁻¹ and a t½ of 40.

B4: antibody 0107 (Fab, V domains shown)
VH: EVQLVESGGGLVQPGGSLRLSCAASGFTFSSYWMSWVRQAPEKGLEWVSTISDGGGLTYYADSVKGRFTISRDNAKNSLYLQMNSLRAEDTAVYYCAESGGYTDWLFGYWGQGTLVTVSS
VL: not shown
Turning to B4, the T½ in test [23] was determined as 31.9 min. The Kd in test [24] was 2 nM. Besides, in [25], the Kd stood at 2 nM, the koff was found to be 0.000362 s⁻¹, the kon came to 195000 M⁻¹ s⁻¹ and the t½ is 31.9 min.

B5: antibody 0086 (antibody, V domains shown)
VH: EVQLVESGGGLVQPGGSLRLSCAASGFTFSSYWMSWVRQAPEKGLEWVSTISDGGGLTYYADSVKGRFTISRDNAKNSLYLQMNSLRAEDTAVYYCAESGGYTDWLFGYWGQGTLVTVSS
VL: not shown
notes: as for B2
Molecule B5 came in with a T½ in test [9] of 41 min. The EC50 in test [10] worked out at 0.012 µg/mL; in test [11], 0.0141 µg/mL; in test [12], 0.0106 µg/mL; in test [13] it was 0.0162 µg/mL. Further, the “IC50 Proliferation 3T3” value in test [14] is 0.056 µg/mL. Further, the “Balb-C3T3 Proliferation, IC50” value in test [15] turned out to be 0.11 nM. Moreover, in test [15], the “Pericytes Migration, IC50” value was 0.09 nM. The “Pericytes Proliferation, IC50” value in [15] was 0.09 nM. Moreover, the figures for the Kd in test [16], in test [20] and in [21] were 0.03 nM, 0.0218 nM and 0.0178 nM, respectively. The results for the off-rate constant (koff) in [17], in test [18] and in test [19] were 2.3e-05 s⁻¹, 1.84e-05 s⁻¹ and 7.93e-05 s⁻¹, respectively. Besides, the association rate constant (kon) in [17] and in test [18] was 1.04e+06 M⁻¹ s⁻¹ throughout. In test [19], this molecule gave a t½ of 146 min. The molecule also gave an IC50 in test [22] of 0.0117 µg/mL.

B6: antibody 0031 (bispecific antibody, V domains shown)
VH 1: QVQLVQSGAEVKKPGASVKVSCKASGYTFTGYYMHWVRQAPGQGLEWIGYISSYNAFTTYNQKFRGRATFTVDTSISTAYMELSRLRSDDTAVYYCVRSDYYGTSLYWGQGTLVTVSS
VL 1: EIVLTQSPATLSLSPGERATLSCRASSSVSYMHWSQQKPGQAPRLLIYSTSNLASGIPARFSGSGSGTDFTLTISSLEPEDFAVYYCHQWSNYYTFGQGTKLEIK
VH 2: not shown
VL 2: SYVLTQPPSVSVAPGQTARITCGGNNIGSKSVHWYQQKPGQAPVLVVYDTSDRPSGIPERFSGSNSGNTATLTISRVEAGDEADYYCQVWDSSSDHWVFGGGTKLTVLSS
notes: CrossMab; also called anti-IL-1beta/ANG2 antibody; bispecific anti-ANG2/IL-1beta antibody
Turning to B6, the “ANG2 specific pTie2-ELISA, activity against the anti-ANG2/VEGF antibody reported in WO 2014/09465” value in test [27] came to 6 fold. The “IC50, inhibition of ICAM-1 expression upon IL-1beta stimulation of A549 cells” value in [28] worked out at 0.104 µg/mL. Besides, in test [5], the “EC50, reduction” value came out at 0.017 µg/mL. In test [29], this molecule came in with a Kd of 8 nM, a koff of 0.00115 s⁻¹, an association rate constant (kon) of 145000 M⁻¹ s⁻¹ and a t½ of 10.1 min. For the same molecule, in test [30], the Kd was found to be 0.12 nM, the koff was determined as 0.000302 s⁻¹, the kon stood at 2.56e+06 M⁻¹ s⁻¹ and the “t 1/2” value came to 38.
